Results on two molecules are retold here after patent US20240247072A1 (KEYMED BIOSCIENCES, published 2024).

In assay [1] the target is FcγRIII F158 (CD16a receptor, low-affinity allele) (human) (UniProt P08637). The assay can be described thus: SPR (Biacore).
Assay [2] concerns the target FcγRIII V158 (CD16a receptor, high-affinity allele) (human) (UniProt P08637). The assay can be described thus: SPR (Biacore). For orientation: In SPR one partner is held on a chip, and binding of the other changes the refractive index at the surface.
Assay [3] deals with FcγRIIIF158 on PBMC of FcγRIIIF158/F158 volunteers (human) (UniProt P08637). Kind of assay: cell-based or functional assay.
Assay [4] addresses FcγRIIIV158 on PBMC of FcγRIIIV158/V158 volunteers (human) (UniProt P08637). Kind of assay: cell-based or functional assay.
The target of assay [5] is T1, recombinant trimeric protein of human CD70 extracellular region (human CD70 mIgG Fc (knob) / mouse IgG Fc … (human, UniProt P01863 98-330 = IgG part)).
T1 chain 1: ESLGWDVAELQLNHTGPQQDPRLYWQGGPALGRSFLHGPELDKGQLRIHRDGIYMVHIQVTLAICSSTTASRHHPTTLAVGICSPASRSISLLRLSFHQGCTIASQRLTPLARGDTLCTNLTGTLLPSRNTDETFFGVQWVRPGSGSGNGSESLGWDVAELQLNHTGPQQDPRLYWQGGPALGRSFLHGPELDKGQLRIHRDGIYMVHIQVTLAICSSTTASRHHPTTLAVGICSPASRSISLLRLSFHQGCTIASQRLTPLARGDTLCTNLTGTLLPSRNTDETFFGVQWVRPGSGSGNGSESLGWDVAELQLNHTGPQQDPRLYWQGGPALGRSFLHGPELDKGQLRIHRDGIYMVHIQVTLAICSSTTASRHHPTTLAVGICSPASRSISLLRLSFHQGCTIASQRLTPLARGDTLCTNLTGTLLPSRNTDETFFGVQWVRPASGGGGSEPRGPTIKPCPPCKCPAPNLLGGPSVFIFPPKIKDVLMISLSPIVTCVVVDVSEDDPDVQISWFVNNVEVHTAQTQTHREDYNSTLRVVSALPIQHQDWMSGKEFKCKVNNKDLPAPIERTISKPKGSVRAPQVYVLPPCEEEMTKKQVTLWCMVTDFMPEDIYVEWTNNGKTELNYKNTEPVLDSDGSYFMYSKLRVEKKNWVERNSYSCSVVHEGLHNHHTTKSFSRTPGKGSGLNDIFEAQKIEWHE
T1 chain 2: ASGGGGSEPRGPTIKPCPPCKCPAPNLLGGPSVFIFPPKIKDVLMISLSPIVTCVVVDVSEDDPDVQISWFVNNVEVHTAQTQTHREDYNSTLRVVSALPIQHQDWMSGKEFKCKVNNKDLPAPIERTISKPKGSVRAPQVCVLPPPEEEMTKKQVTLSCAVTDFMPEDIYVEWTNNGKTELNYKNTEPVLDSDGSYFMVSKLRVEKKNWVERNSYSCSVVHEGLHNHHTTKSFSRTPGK
The assay can be described thus: cell-based or functional assay.

Assay [6] addresses T2, human CD70, full length, on CHO cells (CHO-human CD70-B07) (human, UniProt P32970 1-193).
T2 construct: whole, on cells; Stably transfected CHO cells; also called CHO-CD70
T2 sequence (looked up): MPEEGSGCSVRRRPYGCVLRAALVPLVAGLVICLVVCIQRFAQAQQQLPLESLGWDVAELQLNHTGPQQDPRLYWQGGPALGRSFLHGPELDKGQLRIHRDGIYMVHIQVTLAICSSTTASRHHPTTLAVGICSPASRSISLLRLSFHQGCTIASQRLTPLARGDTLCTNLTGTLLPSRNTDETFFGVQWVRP
Kind of assay: flow cytometry, humanized IgG1 on CHO-human CD70 cells. The protocol:
(§1) The supernatant was discarded and the cells were gently tapped to be loosening. 50 μL of gradient diluted antibodies were added (antibody concentration: from 30 μg/mL, 3-fold dilution for 8 gradients) per well, and incubated at 4° C. for 1 hour. After incubation, 200 μL of 0.5% BSA was added to each well for washing 3 times. 50 μL/well of secondary antibody Alexa Fluro647 anti-human IgG (Jackson ImmunoResearch, Cat. No: 109-606-170) was added and incubated at 4° C. for 45 minutes. At the end of the incubation, each well was washed 3 times with 180 μL of 0.5% BSA and finally resuspended in 50 μL of PBS for iQue (Intellicyt) assay.

The target of assay [7] is T3, cynomolgus monkey CD70, full length, on CHO cells (CHO-monkey CD70-D01) (cynomolgus monkey, UniProt A0A2K5WTU9 1-190).
T3 construct: whole, on cells; Stably transfected CHO cells; also called CHO-cynomolgus monkey CD70
T3 sequence: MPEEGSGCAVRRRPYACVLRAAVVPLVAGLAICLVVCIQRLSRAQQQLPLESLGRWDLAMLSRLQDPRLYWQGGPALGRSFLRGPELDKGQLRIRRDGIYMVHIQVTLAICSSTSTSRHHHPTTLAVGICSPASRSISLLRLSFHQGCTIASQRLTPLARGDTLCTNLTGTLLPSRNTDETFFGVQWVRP
Kind of assay: flow cytometry, humanized IgG1 on CHO-cynomolgus monkey CD70 cells. The protocol: as §1
Background: A flow cytometer gives signals particle by particle.

The target in assay [8] is T1, recombinant trimeric protein of human …. Kind of assay: competition ELISA, humanized IgG1 titrated, CD27 coated, biotin-CD70, human pair. The procedure: The recombinant human CD27 protein was coated at 1 μg/mL in a 96-well microtiter plate and incubated overnight at 4° C. The next day, the plate was washed 3 times with PBS, added with 200 μL of 2% defatted dry milk/PBS, blocked at room temperature for 2 hours, and washed once with PBS. […] 30 μl of the antibody was added per well and incubated at room temperature for 30 minutes. […] The plate was washed 3 times with PBST and PBS and dried by spinning. A secondary antibody solution Streptavidin-coupled horseradish peroxidase SA-HRP (BD bioscience, Cat. No: 6222697) was diluted with 0.5% BSA in a ratio of 1:8000. 100 μL of the diluent was added into each well and incubated at room temperature for 30 minutes. The plate was washed 3 times with PBST and PBS and dried by spinning. […] of color development solution (TMB solution, Sigma, Cat. No: T2885) was added into each well and protected from light at 37° C. for reaction. After the substrate developed moderately, […] of H₂SO₄ was added into each well to terminate the reaction. The OD450 nm was determined using an enzyme-linked detector within 30 minutes, and the data was collected. The results were calculated by using Graph Pad Prism 5 software. See FIG. 10-1, 10-2, and Table 12 for the results.

In assay [9] the target is T4, recombinant cynomolgus monkey CD70 protein (cynomolgus monkey, UniProt A0A2K5WTU9 39-190).
T4 construct: it stands only in column heads ('Monkey', 'Cynomolgus Monkey CD70/CD27') and in result sentences; also called Monkey (ELISA)
T4 sequence: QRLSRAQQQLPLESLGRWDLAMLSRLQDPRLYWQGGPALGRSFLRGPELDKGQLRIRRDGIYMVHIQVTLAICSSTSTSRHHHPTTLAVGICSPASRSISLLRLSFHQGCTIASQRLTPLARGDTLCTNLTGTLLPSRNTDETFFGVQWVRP
Kind of assay: competition ELISA, humanized IgG1 titrated, CD27 coated, biotin-CD70, cynomolgus pair. A general note: In an ELISA, binding on a coated surface is turned into a signal by an enzyme label.

For assay [10], the target named is T2, human CD70, full length, on CHO cells …. Kind of assay: flow cytometry, chimeric IgG on CHO-human CD70 cells. The protocol:
(§2) Different cells in logarithmic growth phase were taken, blocked with 3% BSA for 30 minutes, and plated to a 96-well U-plate at 5×10⁴ cells/100 μL. The centrifuge was performed at 1100 rpm for 3 minutes. The supernatant was discarded and the cells were gently tapped to be loosening. 50 μL of gradient diluted antibody was added (antibody concentration: from 30 μg/mL, 3-fold dilution for 5 gradients) per well, and incubated at 4° C. for 1 hour. After incubation, 180 μL of 0.5% BSA was added to each well for washing 3 times. 30 μL/well of secondary antibody AlexaFluro647 anti-human IgG (Jackson Immuno Research, Cat. No: 109-606-170) was added and incubated at 4° C. for 45 minutes. At the end of the incubation, each well was washed 3 times with 180 μL of 0.5% BSA and finally resuspended in 50 μL of PBS for iQue (Intellicyt, USA) assay.

In assay [11] the target is T3, cynomolgus monkey CD70, full length, on …. The assay can be described thus: flow cytometry, chimeric IgG on CHO-cynomolgus monkey CD70 cells. The protocol:
as §2

Assay [12] deals with T1, recombinant trimeric protein of human …. The assay can be described thus: competition ELISA, chimeric IgG titrated, CD27 coated, biotin-CD70, human pair. The protocol:
(§3) The recombinant CD27 protein was coated at 1 μg/mL in a 96-well microtiter plate and incubated overnight at 4° C. The next day, the plate was washed 3 times with PBS, added with 200 μL of 2% defatted dry milk/PBS, blocked at room temperature for 2 hours, and washed once with PBS. The purified chimeric antibody was divided to 12 concentration gradients starting at 100 nM and diluted in a 1:3 gradient. […] of the antibody was added per well and incubated at room temperature for 30 minutes. […] The plate was washed 3 times with PBST and PBS and dried by spinning. A secondary antibody Streptavidin-coupled horseradish peroxidase SA-HRP (BD bioscience, cat. No: 6222697) was diluted with 0.5% BSA in a ratio of 1:8000. 100 μL of the diluent was added into each well and incubated at room temperature for 30 minutes. The plate was washed 3 times with PBST and PBS and dried by spinning. 100 μl of color development solution (TMB solution, Sigma, Cat. No: T2885) was added into each well and protected from light at 37° C. for reaction. After the substrate developed moderately, 50 μl of H₂SO₄ was added into each well to terminate the reaction. The OD450 nm was determined by using an enzyme-linked detector within 30 minutes, and the data was collected. The results were calculated by using Graph Pad Prism 5 software.

Assay [13] deals with T4, recombinant cynomolgus monkey CD70 …. The assay can be described thus: competition ELISA, chimeric IgG titrated, CD27 coated, biotin-CD70, cynomolgus pair. The procedure:
as §3

The target of assay [14] is T2, human CD70, full length, on CHO cells …. Kind of assay: FACS (iQue) on CHO-human CD70 stably transfected cells, Alexa Fluor 647 anti-human IgG secondary antibody. The protocol: as §1
Assay [15] deals with T3, cynomolgus monkey CD70, full length, on …. The assay can be described thus: FACS (iQue) on CHO-cynomolgus monkey CD70 stably transfected cells, Alexa Fluor 647 anti-human IgG secondary antibody. The procedure:
as §1

Chain of FcγRIIIF158 on PBMC of FcγRIIIF158/F158 volunteers (human) (P08637 17-254): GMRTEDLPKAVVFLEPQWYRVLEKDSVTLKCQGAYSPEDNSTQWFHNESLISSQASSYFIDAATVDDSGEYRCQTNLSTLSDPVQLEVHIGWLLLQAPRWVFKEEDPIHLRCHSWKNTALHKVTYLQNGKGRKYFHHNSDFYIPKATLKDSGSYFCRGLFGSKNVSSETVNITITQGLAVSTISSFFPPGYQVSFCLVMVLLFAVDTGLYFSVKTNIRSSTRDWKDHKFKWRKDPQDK
Chain of FcγRIIIV158 on PBMC of FcγRIIIV158/V158 volunteers (human) (P08637 17-254 F176V): as the sequence (P08637 17-254) above, with F160V counted along it
Chain of FcγRIII F158 (CD16a receptor, low-affinity allele) (human) (P08637 17-208 limits assumed): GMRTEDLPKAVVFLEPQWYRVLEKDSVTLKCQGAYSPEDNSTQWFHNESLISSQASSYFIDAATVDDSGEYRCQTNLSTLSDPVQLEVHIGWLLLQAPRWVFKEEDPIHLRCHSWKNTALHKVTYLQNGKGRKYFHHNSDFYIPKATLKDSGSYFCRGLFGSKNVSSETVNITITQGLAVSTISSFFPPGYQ
Chain of FcγRIII V158 (CD16a receptor, high-affinity allele) (human) (P08637 17-208 F176V limits assumed): as the sequence (P08637 17-208 limits assumed) above, with F160V counted along it

B1: humanized antibody Ab004 (IgG1 wild type) (antibody, V domains shown)
VH: QVQLVQSGSELKKPGASVKVSCKASGYTFTNYGMNWVRQAPGQGLEWMGWINTYTGEPTYADGFTGRFVFSLDTSASTAYLQISSLKAEDTAVYFCAREEDYRYVFNYWGQGTLVTVSS
VL: DIQMTQSPSSLSASVGDRVTITCQASQDISNYLNWYQQKPGKAPKLLIYDTSRLHAGVPSRFSGSGSGTDYTFTISSLQPEDIATYFCQQGVTLPLTFGQGTKLEIK
notes: also called Ab004 IgG1 wt; h39H5 VHv2 + h39H5 VKv1
As a reminder, the Kd is the equilibrium constant for the complex coming apart. By EC50 is commonly meant the midpoint of the concentration-response curve. For orientation: IC50 means the concentration needed to halve the response being measured. With B1, the Kd in assay [1] is 1300 nM; in assay [2], 565 nM. Moreover, in assay [3], the ADCC Killing EC50, Daudi targets, FcγRIIIF158 PBMC is 0.23 nM. The ADCC Maximum killing rate, Daudi targets, FcγRIIIF158 PBMC in [3] is 13%. This molecule also yielded an ADCC Killing EC50, Daudi targets, FcγRIIIV158 PBMC in assay [4] of 0.22 nM. Besides, the ADCC Maximum killing rate, Daudi targets, FcγRIIIV158 PBMC in assay [4] was 40%. In [5], the “Inhibition of IL-8 secretion IC50(nM), HT1080-human CD27 cells stimulated with recombinant human CD70” value was 11 nM. In addition, the figures for the concentration for a half-maximal effect (EC50) in [6] and in [7] were 2.15 nM and 3.39 nM, respectively. Further, the IC50 in assay [8] came out at 0.04 nM; in assay [9], 0.05 nM.

B2: 39H5 chimeric antibody (antibody, V domains shown)
VH: EIQLVQSGPELKKPGETVKISCKASGYTFTNYGMNWVKQAPGQGLKWMGWINTYTGEPTYADDFTGRFAFSLETSASTAYLQINNLKNEDMAAYFCAREEDYRYVFNYWGQGTTLTVSS
VL: DIQMIQSTSSLSASLGNRVTISCRASQDISNYLNWYQQKPDGTVKLLIYDTSRLHAGVPSRFSGSGSGTDYSLTISNLEQEDIATYFCQQGVTLPLTFGAGTKLEIK
Broadly, the EC50 (read off the curve) is the midpoint of the concentration-response curve. Consider B2, for which the EC50 in assay [10] was 10.2 nM; in assay [11] it was 15.1 nM. In addition, the IC50 in assay [12] worked out at 0.06 nM; in assay [13], 0.08 nM. For the same molecule, the “EC50 (read off the curve)” value in assay [14] and in assay [15] was around 3 nM throughout.
